Test: soluble on expression in E. coli; label from the status in PepcDB or PDB records

Sequence | soluble on expression in E. coli
DCLLPIVAAPMAGGPTTVALAQAVSGVGGFPFLAGGYKSVEALATEIAVLRASGGNFGVNLFVPSPDMVDAEAFRIYAAKLQSEALPYGLRLDPLPVMGDDDGWPDKLALLLNDPVPVVSFTFGLPAVRDIAALRCAGSRVLASVTLPAEAQAAMEAGVDGLVVQGPDAGGHSATYDPGRPFTPLKTVSLVRRVCAVSSLPVIAAGGVDGPVMVRALLQAGAAAVAIGTLLLRTKESGATQVHKDALANPAYTETVITHAFTGRPARTLRNGFVNRYHASAPLGYPAIHHLTRPLRQAAASAGDADVLHLWAGTGYRQAMDGSAVDVIQ | not soluble
MKVFLIGANGQIGQRLVSLFQDNPDHSIRAMVRKEEQKASLEAAGAEAVLANLEGSPEEIAAAAKGCDAIIFTAGSGGSTGYDKTLLVDLDGAAKAIEAAAIAGIKRFIMVSALQAHNRENWNEALKPYYVAKHYADKILEASGLTYTIIRPG | not soluble
MISENYSRNLVGYGRNAPDPKWPGGARIAVQFVINYEEGGESCILDNDKASESLLSEIVGAQPWPGQRNLNMESIYEYGSRAGFWRLWRMFTGLGVTTTVYGVTAAMARNPEAVAAMKEAGWEIASHGYRWLEYKDFSEEEERKHIVEAVHLHTELTGERPYGMYQGKPSDNTLRLVMEEGGFLYSSDSYADDLPYWVKGVGDEPFLIIPYTLDTNDMRFATPQGFNSGDQFFTYLKDAFDVLYQEGVEGAPKMMSIGLHCRLVGRPGRAAALRRFIEYVLGHEKVWIPQRLEIARHWHEHHKPETP | not soluble
PRKRFIYLERKISPAMASYIKELKIPGIHLRKESKRFYPTGEISAHLIGFTNVDDKGIEGIERMYDDLLTGTGGAKRFRKDAKGRKIEIISVEEPEQAQDITLSID | not soluble
GMTSPVAVIARFMPRPDARSALRALLDAMITPTRAEDGCRSYDLYESADGGELVLFERYRSRIALDEHRGSPHYLNYRAQVGELLTRPVAVTVLAPLDEASA | soluble
MARKIRKLRKAEVNYITIKATLEAEKKEDYLKLALLTEKFKRAVELSIRLQLKGVKKSEGVKEVSRLILNNWWYSDSAWDYAKMLRKGAERS | not soluble
MVKFIHCADLHLDSPFKSKSYLSPNIFEDVQKSAYESFKNIVDLALKQEVDFIIIAGDLFDSENRTLRAEVFLNEQFERLRKEQIFVYICHGNHDPLTSKITSQWPNNVSVFSNQVETYQAITKSGETIYIHGFSYQNDASYENKIDAYPSSQGQKGIHIGVLHGTYSKSSVKDRYTEFRLEDLNQRLYHYWALGHIHQREQLSDMPVINYPGNIQGRHFNELGEKGCLLVEGDHLKLTTQFYPTQFIKFEEATIETDHTSKQGLYDVIQSFKDKVRTEGKSFYRLNVRINSEDIIAPQDLIQLKEMITEFEENENQFVFIEDLNLQYVQNDEMPIVKEFSPELLDDASLFDSAMTDLYLNPRASKFLDDYNEFDKVELVNHAERLLKDEMRGEQNDN | not soluble
MEINADFTKPVVIDTDQLEWRPSPMKGVERRMLDRIGGEVARATSIVRYAPGSRFSAHTHDGGEEFIVLDGVFQDEHGDYPAGTYVRNPPTTSHVPGSAEGCTIFVKLWQFDPADRTQFSKNMEAELGAPVEGISTSLLHEDERETVTHRKLEPGANLTSEAAGGIEVLVLDGDVTVNDEVLGRNAWLRLPEGEALSATAGARGAKIWMKTGHLRFVRTPEV | soluble
MGSDKIHHHHHHMSETSDTIREAFTESAWIPSPKEVFGPDGSLTEEVGEENKSLIWTLLKQIRPGMDLSKVVLPTFILEPRSFLEKLADYYYHADLISEAVAEPDPFQRIVKVTKFFLSGFYKKPKGLKKPYNPILGETFRCKWEHPDGSTTFYMAEQVSHHPPVSSLFITNRKAGFNISGTILAKSKYYGNSLSAILAGKLRLTLLNLGETYIVNLPYANCKGIMIGTMTMELGGEVNIECEKTGYRTTLDFKLKPMLGGAYNQIEGSIKYGSDRLASIEGAWDGVIRIKGPDGKKELWNPTPEVIKTRLPRYEINMDEQGEWESAKLWRHVTEAISNEDQYKATEEKTALENDQRARAKSGIPHETKFFKKQHGDDYVYIHADYRPWDNNNDIQQIENNYVVKTISRHSKRKTGNSEQLGSDNTSEASESDEE | not soluble
MGVVLIDGSTVRSFVDDEEQFKKSVDERFAALDLNKDGVLSRSELRKAFESMRLLESHFGVDVVTPQDELTNLYDSIFEKFDTDQSGSVDLEEFRSEMKKIVLAIADGLGSCPITMVLDDDDDNFLKKAADLEASKLEKASS | soluble
MTAGFNFNNYAAGFCSATPALRGNEVNMDTLNLGNNESLVCGVFPNQDGTFTAMTYTKSKTFKTEAGARRWLARNTD | soluble
MQSVDVAIVGGGMVGLAVACGLQGSGLRVAVLEQRVPEPLAVDALPQLRVSAINAASEKLLTRLGVWQDILARRASCYHGMEVWDKDSFGHISFDDQSMGYSHLGHIVENSVIHYALWNKAQQSSDITLLAPTELQQVAWGENETFLTLKDGSMLTARLVIGADGANSWLRNKADIPLTFWDYQHHALVATIRTEEPHDAVARQVFHGEGILAFLPLSDPHLCSIVWSLSPEEAQRMQQASEDEFNRALNIAFDNRLGLCKVESARQVFPLTGRYACQFAAHRLALVGDAAHTIHPLAGQGVNLGFMDAAELIAELKRLHRQGKDIGQYIYLRRYERSRKHSAALMLAGMQGFRDLFSGANPAKKLLRDIGLKLADTLPGVKPQLIRQAMGLNDLPEWLRLEHHHHHH | soluble
MGSDKIHHHHHHMNEAFLSLTPAQIRHRLHAAPELSGQETETARRVAGWLEQAGATRIVTGLGGHGVAGVFAGTLPGPRVMFRAELDGLPIDETAEIAWKSTCEHVAHSCGHDGHMAVLLGLAQRLAEQPPTHGETVLLFQPSEETGRGAREVVESSRFEEIAPDHVYALHNLPGKPLGEVSVREGAMTCASRGLIIRLNGLCAHAAHPEQGRNPALAMCRILQGLKRLPQQLPDDQGLVMVTLIHARLGEVAFGTSPGQAEVMATLRTEDDAMMRALAEASVALARAEAEEDDLGIEIDWCDVFQATRNHPAAVASIREAARSLNMPLTALPEAHRWSEDFGWLAAQGQGALLTLGAGERCLPLHNPGYDFPDDLLDTGIALFERLVRLHQSDV | not soluble
MKEKILLGGYTKRVSKGVYSVLLDTKAAELSSLNEVAAVQNPTYITLDEKGHLYTCAADSNGGGIAAFDFDGETATHLGNVTTTGAPLCYVAVDEARQLVYGANYHLGEVRVYKIQANGSLRLTDTVKHTGSGPRPEQASSHVHYSDLTPDGRLVTCDLGTDEVTVYDVIGEGKLNIATIYRAEKGMGARHITFHPNGKIAYLVGELNSTIEVLSYNEEKGRFARLQTISTLPEDYHGANGVAAIRISSDGKFLYTSNRGHDSLTTYKVSPLGTKLETIGWTNTEGHIPRDFNFNKTEDYIIVAHQESDNLSLFLRDKKTGTLTLEQKDFYAPEITCVLPLLEHHHHHH | not soluble
MGSDKIHHHHHHMNLTIRQFRAFLAVADLRSFTAASKYLCITQGAVSGLINEMESQMEVSLFDRTSRVVKLSPDGEKFLPAAMRVVEEFQRAENYARDLKEIKKSLVRVVGAPLIACAFLPQIIHAFKRQHPHTHVQLIDKPMSQLQKSIMLGEADFGIGPERPLEPEIDKQTLFTTEIALYCHPDYRLHKKTVRWEEIQSEELIAVGNESIPMISATAGVRIKPKMTVEHMATAMSLAAQCEGVVIAGTFSRHYAKSYQLATCSLTPPLRRNMNLYFHAWRAQTPATQRFRDFLFSYVDEHHDAPANQR | not soluble
MRHLRFENLTEEQLKRLAKILTENLKGGEVVILSGNLGAGKTTFVKGMIRAIGLDEKMVKSPTFTLMNVYPGLKTIYHLDLYRLQDTDFLSLDVEDILEDEDGIMVVEWGDLFDGFWPEDSIKVKIEIADESHRNVEILIPEEVNFLVEKIERYRKELQNT | soluble
MGSDKIHHHHHHAATSNKKNTIKLISTNNNIKIPVYDRQGKQINGFTVESGANVTVIGKPIIVQQKYRKDVFEGIKINGKTYASLGDGGYIPINATGVITSKGMKITRDTAVYNKNGKKLSTYRGHTATLKKDSIVKYGGATTYTIPVSYFNIGNGRYVRASYVQEYNGQTVLTLNYNTFVYNKKGKRINYDGQRKLMNGGVVTTNSKIREAKSSDQNYFYSSANYTDKNKLAFTTTKIKGQDYLSIGKGEYIKIANVKTANGMILFTKGPITITLPSDTTIYSSNFKETKKQIAAGKKVILDKTEIDNSLSDPQLYFRIKGTNELIYWGDLGEYPGVDHTAVYDPNYYSIYSFPLRQFME | not soluble
MLKELEVNGKRFFLAPESNFWAIGEREEVERFYRERKDALLEEMQRYRFEVDIRTAYINPTESCNRNCPYCYIPAEIRERGTKMSYEKLEEILTVLAENGVERVIFHGAEPLMVKDEIFRAMEDFDFKYGIQTNATLLEEEDAELLMKKGASVGISLDSPYKETNDYLRGKGHYDAVMRALDFFDGYRSLNIIMTVNKHNFQHLPAMVDFLAGKVSVMLANPVRGTSPGGRELRPPEGFEDYYIKAIDRAIENTKSGRRIVIGDFANILLGLVAPTSRVLQCDISPCGGGRRFFAVSADGIYPCGEFIGMEEFRANLSALSDWSSLIEKFEVVRKRTVEQIEECRNCEFRNLCGAPCPAEIYAESGTMLRKSPYCEFYKKLALKAMDVIARGDVRNVLKLERMKAIYRVEDF | not soluble
ALSPPRRKSFKKWTPPRSPFNLVQEILFHDPWKLLIATIFLNRTSGKMAIPVLWEFLEKYPSAEVARAADWRDVSELLKPLGLYDLRAKTIIKFSDEYLTKQWRYPIELHGIGKYGNDSYRIFCVNEWKQVHPEDHKLNKYHDWLWENHEKLSLS | soluble
MSSDKSIEKNTDTIASEVHEGDNHSNNLGSMEEEIKSTPSDQYEEIAIIPTEPLHSDKELNDKQQSLGHEAPTNVSREEPIGISGDEDTQITEQNVNEQRQETREPSSEIDLNEPLDVEKDVTTDVQAPNGLNIEKEYDAVKENEKVYADTKEVVSSPENREVTGKNSGGEKSSSSKFLDDESGTTTAANANDISISSEVTPERSSENDNNQIHITNEVAAGINLNENKEQKAAIEDGPVTAENLSSETARKVPPIPTQIINEKGDNSSENEVSAIPTTSSPPLPPRQNVATSTSPKLPPRGKQREQPPKTKNAVPPPLEEEMKSEKFRKNFEETKRNSYHHVPLTGSKTAQLESTAEINLIASRYRKTSHHLNKEGEETRESLQEGQSFLKSTFTSFLENLSEYNEVENVNEEDREMFKIDWSFWTQVVNDYATVASNEPENLEAHVTNGIPPQIRGIIWQLMANSKSREMEDIYETLLDTECLHEATIRRDLRRTKFVAEDKMESLYKVIKVYSVYDPDVGYTQGMGFIAAPLLINCENEAESFGLLVGLMKNYGLRELFLPGMPGLMLMLYQFDRLLEEHSPSLYNRLIREGISSTMYATQWFLTFFAYKFPLEFVLRIFDIVFVEGIEVLLKFAVNLMLKNEETLVKLRFDELLDFLKDELFNYYLMGNQDDASVVQMGLSNGNSFKGNDDGTFSYNVDLFVHDAMTGVYITPLTLRRYRGEYVEIHEKEQKKEDHYESLRIQNHQLQREAQKLEHDYSILNKENISAANELIQNRLNMEMLLDEKNDLINTITDIKSQIEEEIRKQNLPNPDASLPKADLREDLERTISRNNEVMRENGQLEERITELQAEIDELININKEQVSTASLLERDSKAKGRKGWTGFKKVFK | soluble
MDFYDTDELRDFMALVEKTNDIKKIALFRILAFTGIRKGELLALEWKDYRKSTLDINKAISHSPVGYEILPPKANSNRLLSLDEKTCKILDELHQTYPESTRIFESENGGMLSPSKPRKWLLEITKEKEIEPIRIHAFRHTHASLLFESGMSLKQVQYRLGHADLKTTMNIYTHITKLEHHHHHH | not soluble
TAILVTTRDGTRTEIQAEPGLSLMEALRDAGIDELLALCGGCCSCATCHVLVAPAFADRLPALSGDENDLLDSSDHRTPHSRLSCQITINDKLEGLEVEIAPED | soluble
